Experimental data taken from US20140178854A1.

Experiments:
[1] = molecular target: gp70 env protein of amphotropic MLV (4070A envelope), on purified viral particles (amphotropic murine leukemia virus (4070A envelope)); assay: ELISA on plate-bound MLV, dilution factor 6250, Exp125-Ana Plate 1
[2] = molecular target: gp70 env protein of amphotropic MLV (4070A envelope), on purified viral particles (amphotropic murine leukemia virus (4070A envelope)); assay: ELISA on plate-bound MLV, dilution factor 156250, Exp122-Ana Plate 2
[3] = molecular target: gp70 env protein of amphotropic MLV (4070A envelope), on purified viral particles (amphotropic murine leukemia virus (4070A envelope)); assay: ELISA on plate-bound MLV, dilution factor 10, Exp074-DTV Plate 2
[4] = molecular target: gp70 env protein of amphotropic MLV (4070A envelope), on purified viral particles (amphotropic murine leukemia virus (4070A envelope)); assay: ELISA on plate-bound MLV, dilution factor 10, Exp125-Ana Plate 1
[5] = molecular target: gp70 env protein of amphotropic MLV (4070A envelope), on purified viral particles (amphotropic murine leukemia virus (4070A envelope)); assay: ELISA on plate-bound MLV, dilution factor 781250, Exp074-DTV Plate 1
[6] = molecular target: gp70 env protein of amphotropic MLV (4070A envelope), on purified viral particles (amphotropic murine leukemia virus (4070A envelope)); assay: ELISA on plate-bound MLV, dilution factor 156250, Exp121-Ana Plate 1
[7] = molecular target: gp70 env protein of amphotropic MLV (4070A envelope), on purified viral particles (amphotropic murine leukemia virus (4070A envelope)); assay: ELISA on plate-bound MLV, dilution factor 781250, Exp121-Ana Plate 2
[8] = molecular target: gp70 env protein of amphotropic MLV (4070A envelope), on purified viral particles (amphotropic murine leukemia virus (4070A envelope)); assay: ELISA on plate-bound MLV, dilution factor 781250, Exp121-Ana Plate 1
[9] = molecular target: gp70 env protein of amphotropic MLV (4070A envelope), on purified viral particles (amphotropic murine leukemia virus (4070A envelope)); assay: ELISA on plate-bound MLV, dilution factor 50, Exp074-DTV Plate 2
[10] = molecular target: gp70 env protein of amphotropic MLV (4070A envelope), on purified viral particles (amphotropic murine leukemia virus (4070A envelope)); assay: ELISA on plate-bound MLV, dilution factor 781250, Exp122-Ana Plate 1
[11] = molecular target: gp70 env protein of amphotropic MLV (4070A envelope), on purified viral particles (amphotropic murine leukemia virus (4070A envelope)); assay: ELISA on plate-bound MLV, dilution factor 50, Exp121-Ana Plate 1
[12] = molecular target: gp70 env protein of amphotropic MLV (4070A envelope), on purified viral particles (amphotropic murine leukemia virus (4070A envelope)); assay: ELISA on plate-bound MLV, dilution factor 50, Exp074-DTV Plate 1
[13] = molecular target: gp70 env protein of amphotropic MLV (4070A envelope), on purified viral particles (amphotropic murine leukemia virus (4070A envelope)); assay: ELISA on plate-bound MLV, dilution factor 156250, Exp072-DTV Plate 1
[14] = molecular target: gp70 env protein of amphotropic MLV (4070A envelope), on purified viral particles (amphotropic murine leukemia virus (4070A envelope)); assay: ELISA on plate-bound MLV, dilution factor 250, Exp074-DTV Plate 1
[15] = molecular target: gp70 env protein of amphotropic MLV (4070A envelope), on purified viral particles (amphotropic murine leukemia virus (4070A envelope)); assay: ELISA on plate-bound MLV, dilution factor 50, Exp122-Ana Plate 2
[16] = molecular target: gp70 env protein of amphotropic MLV (4070A envelope), on purified viral particles (amphotropic murine leukemia virus (4070A envelope)); assay: ELISA on plate-bound MLV, dilution factor 156250, Exp125-Ana Plate 2
[17] = molecular target: gp70 env protein of amphotropic MLV (4070A envelope), on purified viral particles (amphotropic murine leukemia virus (4070A envelope)); assay: ELISA on plate-bound MLV, dilution factor 781250, Exp074-DTV Plate 2
[18] = molecular target: gp70 env protein of amphotropic MLV (4070A envelope), on purified viral particles (amphotropic murine leukemia virus (4070A envelope)); assay: ELISA on plate-bound MLV, dilution factor 1250, Exp122-Ana Plate 2
[19] = molecular target: gp70 env protein of amphotropic MLV (4070A envelope), on purified viral particles (amphotropic murine leukemia virus (4070A envelope)); assay: ELISA on plate-bound MLV, dilution factor 10, Exp125-Ana Plate 2
[20] = molecular target: gp70 env protein of amphotropic MLV (4070A envelope), on purified viral particles (amphotropic murine leukemia virus (4070A envelope)); assay: ELISA on plate-bound MLV, dilution factor 1250, Exp121-Ana Plate 2
[21] = molecular target: gp70 env protein of amphotropic MLV (4070A envelope), on purified viral particles (amphotropic murine leukemia virus (4070A envelope)); assay: ELISA on plate-bound MLV, dilution factor 50, inter-assay mean of six experiments
[22] = molecular target: gp70 env protein of amphotropic MLV (4070A envelope), on purified viral particles (amphotropic murine leukemia virus (4070A envelope)); assay: ELISA on plate-bound MLV, dilution factor 156250, Exp122-Ana Plate 1
[23] = molecular target: gp70 env protein of amphotropic MLV (4070A envelope), on purified viral particles (amphotropic murine leukemia virus (4070A envelope)); assay: ELISA on plate-bound MLV, dilution factor 31250, Exp074-DTV Plate 2
[24] = molecular target: gp70 env protein of amphotropic MLV (4070A envelope), on purified viral particles (amphotropic murine leukemia virus (4070A envelope)); assay: ELISA on plate-bound MLV, dilution factor 156250, Exp073-DTV Plate 2
[25] = molecular target: gp70 env protein of amphotropic MLV (4070A envelope), on purified viral particles (amphotropic murine leukemia virus (4070A envelope)); assay: ELISA on plate-bound MLV, dilution factor 10, inter-assay mean of six experiments
[26] = molecular target: gp70 env protein of amphotropic MLV (4070A envelope), on purified viral particles (amphotropic murine leukemia virus (4070A envelope)); assay: ELISA on plate-bound MLV, dilution factor 781250, Exp125-Ana Plate 2

Sequence of gp70 env protein of amphotropic MLV (4070A envelope), on purified viral particles (amphotropic murine leukemia virus (4070A envelope)) (P21995 whole entry): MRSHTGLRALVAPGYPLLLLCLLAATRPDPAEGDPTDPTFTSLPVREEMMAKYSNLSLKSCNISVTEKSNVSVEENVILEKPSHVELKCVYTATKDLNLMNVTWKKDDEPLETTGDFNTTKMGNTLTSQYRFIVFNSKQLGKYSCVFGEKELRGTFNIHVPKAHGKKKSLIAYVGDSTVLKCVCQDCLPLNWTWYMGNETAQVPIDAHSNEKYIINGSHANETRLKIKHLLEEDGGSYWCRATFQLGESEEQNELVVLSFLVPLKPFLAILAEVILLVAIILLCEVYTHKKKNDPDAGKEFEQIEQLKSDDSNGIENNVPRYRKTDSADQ

83A25 monoclonal antibody (rat IgG2a, anti-gp70)
Mean OD [1]: 0.653 OD
Mean OD [2]: 0.174 OD
Mean OD [3]: 2.31 OD
Mean OD [4]: 2.17 OD
Mean OD [5]: 0.114 OD
Mean OD [6]: 0.163 OD
Mean OD [7]: 0.131 OD
Mean OD [8]: 0.137 OD
Mean OD [9]: 2.14 OD
Mean OD [10]: 0.162 OD
Mean OD [11]: 2.43 OD
Mean OD [12]: 2.01 OD
Mean OD [13]: 0.116 OD
Mean OD [14]: 1.92 OD
Mean OD [15]: 1.89 OD
Mean OD [16]: 0.124 OD
Mean OD [17]: 0.107 OD
Mean OD [18]: 1.4 OD
Mean OD [19]: 2.27 OD
Mean OD [20]: 1.84 OD
Mean OD (inter-assay mean) [21]: 2.09 OD
Mean OD [22]: 0.18 OD
Mean OD [23]: 0.25 OD
Mean OD [24]: 0.139 OD
Mean OD (inter-assay mean) [25]: 2.3 OD
Mean OD [26]: 0.105 OD
